Laboratory results from the supplement of paper PMC9112550, “Optimization of the antimicrobial peptide Bac7 by deep mutational scanning” (BMC Biology, 2022).

Tested on: Escherichia coli TOP10
Experiment: shrunken log2 fold change of peptide-encoding DNA abundance (4.5 h post-induction vs induction); higher = less antimicrobial activity (less host growth inhibition)
Settings: time post-induction: 4.5 h; library: site-saturation at positions 5, 18, 19, 20
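Further: peptides expressed intracellularly from a pBAD plasmid library in pooled LB shake-flask culture, induced with 0.3% L-arabinose, DNA abundance read by NGS, three biological replicates, DESeq2 with apeglm shrinkage.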

Point of comparison: RRIRARPPRLPRPRPRPDDAPRP, “shrunken log2 fold change” value 0.138. Against it:
- RRIRARPPRLPRPRPRPACYPRP — higher, 0.489
- RRIRARPPRLPRPRPRPADAPRP — higher, 0.473
- RRIRARPPRLPRPRPRPADDPRP — higher, 0.409
- RRIRARPPRLPRPRPRPADNPRP — higher, 0.383
- RRIRARPPRLPRPRPRPAENPRP — higher, 0.865
- RRIRARPPRLPRPRPRPAEQPRP — higher, 0.728
- RRIRARPPRLPRPRPRPAETPRP — higher, 0.398
- RRIRARPPRLPRPRPRPAFHPRP — lower, -0.115
- RRIRARPPRLPRPRPRPAFPPRP — higher, 0.532
- RRIRARPPRLPRPRPRPAHYPRP — within 0.2 log units, 0.095
- RRIRARPPRLPRPRPRPAIAPRP — higher, 0.547
- RRIRARPPRLPRPRPRPALNPRP — higher, 0.431
- RRIRARPPRLPRPRPRPALPPRP — within 0.2 log units, 0.309
- RRIRARPPRLPRPRPRPAMQPRP — higher, 0.723
- RRIRARPPRLPRPRPRPANLPRP — within 0.2 log units, 0.177
- RRIRARPPRLPRPRPRPANVPRP — lower, -0.0645
- RRIRARPPRLPRPRPRPANWPRP — within 0.2 log units, 0.215
- RRIRARPPRLPRPRPRPANYPRP — lower, -0.122
- RRIRARPPRLPRPRPRPAPEPRP — higher, 0.777
- RRIRARPPRLPRPRPRPAPMPRP — higher, 0.799
- RRIRARPPRLPRPRPRPAPPPRP — higher, 1.27
- RRIRARPPRLPRPRPRPAQAPRP — higher, 0.939
- RRIRARPPRLPRPRPRPAQEPRP — higher, 0.582
- RRIRARPPRLPRPRPRPARNPRP — higher, 0.364
- RRIRARPPRLPRPRPRPASRPRP — higher, 0.44
- RRIRARPPRLPRPRPRPASWPRP — higher, 0.537
- RRIRARPPRLPRPRPRPATKPRP — higher, 0.531
- RRIRARPPRLPRPRPRPAVLPRP — higher, 0.549
- RRIRARPPRLPRPRPRPAVQPRP — within 0.2 log units, -0.0122
- RRIRARPPRLPRPRPRPAVRPRP — higher, 0.545
- RRIRARPPRLPRPRPRPAYMPRP — lower, -0.64
- RRIRARPPRLPRPRPRPCARPRP — higher, 0.786
- RRIRARPPRLPRPRPRPCCHPRP — lower, -0.454
- RRIRARPPRLPRPRPRPCDFPRP — lower, -0.128
- RRIRARPPRLPRPRPRPCDYPRP — lower, -0.295
- RRIRARPPRLPRPRPRPCEHPRP — within 0.2 log units, 0.0977
- RRIRARPPRLPRPRPRPCFAPRP — higher, 0.61
- RRIRARPPRLPRPRPRPCFHPRP — within 0.2 log units, -0.0446
- RRIRARPPRLPRPRPRPCFNPRP — within 0.2 log units, 0.0639
- RRIRARPPRLPRPRPRPCFSPRP — lower, -0.137
- RRIRARPPRLPRPRPRPCFVPRP — lower, -0.0979
- RRIRARPPRLPRPRPRPCGCPRP — higher, 0.807
- RRIRARPPRLPRPRPRPCGKPRP — higher, 0.659
- RRIRARPPRLPRPRPRPCGLPRP — within 0.2 log units, -0.0341
- RRIRARPPRLPRPRPRPCGMPRP — within 0.2 log units, 0.0551
- RRIRARPPRLPRPRPRPCHLPRP — lower, -0.171
- RRIRARPPRLPRPRPRPCIDPRP — within 0.2 log units, 0.306
- RRIRARPPRLPRPRPRPCIVPRP — lower, -0.233
- RRIRARPPRLPRPRPRPCKTPRP — within 0.2 log units, 0.107
- RRIRARPPRLPRPRPRPCLLPRP — within 0.2 log units, 0.0509
- RRIRARPPRLPRPRPRPCLYPRP — within 0.2 log units, 0.137
- RRIRARPPRLPRPRPRPCMMPRP — lower, -0.0864
- RRIRARPPRLPRPRPRPCMTPRP — higher, 0.591
- RRIRARPPRLPRPRPRPCNKPRP — lower, -0.43
- RRIRARPPRLPRPRPRPCPNPRP — lower, -0.0809
- RRIRARPPRLPRPRPRPCPYPRP — lower, -0.359
- RRIRARPPRLPRPRPRPCQKPRP — higher, 0.431
- RRIRARPPRLPRPRPRPCSLPRP — lower, -0.272
- RRIRARPPRLPRPRPRPCWCPRP — higher, 0.721
- RRIRARPPRLPRPRPRPCWDPRP — lower, -0.102
- RRIRARPPRLPRPRPRPCWFPRP — within 0.2 log units, 0.107
- RRIRARPPRLPRPRPRPCYCPRP — lower, -0.0765
- RRIRARPPRLPRPRPRPDAYPRP — higher, 0.522
- RRIRARPPRLPRPRPRPDCAPRP — higher, 0.826
- RRIRARPPRLPRPRPRPDCEPRP — higher, 1
- RRIRARPPRLPRPRPRPDCIPRP — higher, 0.446
- RRIRARPPRLPRPRPRPDCWPRP — higher, 1.21
- RRIRARPPRLPRPRPRPDDMPRP — higher, 0.371
- RRIRARPPRLPRPRPRPDETPRP — within 0.2 log units, 0.00253
- RRIRARPPRLPRPRPRPDFRPRP — within 0.2 log units, 0.0149
- RRIRARPPRLPRPRPRPDFYPRP — within 0.2 log units, 0.0576
- RRIRARPPRLPRPRPRPDGDPRP — within 0.2 log units, -0.036
- RRIRARPPRLPRPRPRPDGNPRP — within 0.2 log units, -0.0344
- RRIRARPPRLPRPRPRPDGSPRP — within 0.2 log units, 0.0886
- RRIRARPPRLPRPRPRPDIHPRP — within 0.2 log units, 0.145
- RRIRARPPRLPRPRPRPDIIPRP — higher, 0.363
- RRIRARPPRLPRPRPRPDKEPRP — within 0.2 log units, 0.0435
- RRIRARPPRLPRPRPRPDKIPRP — within 0.2 log units, 0.299
- RRIRARPPRLPRPRPRPDKNPRP — within 0.2 log units, -0.00427
- RRIRARPPRLPRPRPRPDLIPRP — within 0.2 log units, 0.235
- RRIRARPPRLPRPRPRPDLNPRP — higher, 0.473
- RRIRARPPRLPRPRPRPDMSPRP — within 0.2 log units, 0.0274
- RRIRARPPRLPRPRPRPDNFPRP — lower, -0.294
- RRIRARPPRLPRPRPRPDQEPRP — within 0.2 log units, 0.0233
- RRIRARPPRLPRPRPRPDSAPRP — higher, 0.608
- RRIRARPPRLPRPRPRPDTEPRP — within 0.2 log units, 0.00829
- RRIRARPPRLPRPRPRPDTIPRP — within 0.2 log units, 0.103
- RRIRARPPRLPRPRPRPDYEPRP — within 0.2 log units, 0.00147
- RRIRARPPRLPRPRPRPDYTPRP — lower, -0.312
- RRIRARPPRLPRPRPRPDYVPRP — higher, 0.353
- RRIRARPPRLPRPRPRPEASPRP — higher, 1.19
- RRIRARPPRLPRPRPRPEDWPRP — higher, 1.63
- RRIRARPPRLPRPRPRPEESPRP — within 0.2 log units, -0.024
- RRIRARPPRLPRPRPRPEEYPRP — lower, -0.0897
- RRIRARPPRLPRPRPRPEFPPRP — higher, 0.962
- RRIRARPPRLPRPRPRPEHYPRP — within 0.2 log units, 0.068
- RRIRARPPRLPRPRPRPEKCPRP — lower, -0.15
- RRIRARPPRLPRPRPRPEKTPRP — higher, 0.38
- RRIRARPPRLPRPRPRPELSPRP — within 0.2 log units, 0.0862
- RRIRARPPRLPRPRPRPEMDPRP — higher, 0.41
- RRIRARPPRLPRPRPRPEMHPRP — higher, 1.1
- RRIRARPPRLPRPRPRPENGPRP — within 0.2 log units, -0.0341
- RRIRARPPRLPRPRPRPENIPRP — lower, -0.251
- RRIRARPPRLPRPRPRPEPLPRP — within 0.2 log units, 0.284
- RRIRARPPRLPRPRPRPEQAPRP — higher, 0.759
- RRIRARPPRLPRPRPRPERAPRP — higher, 0.845
- RRIRARPPRLPRPRPRPERIPRP — within 0.2 log units, 0.155
- RRIRARPPRLPRPRPRPERSPRP — within 0.2 log units, 0.264
